Results reported in patent US20250313635A1 (Merck Sharp & Dohme, published 2025).

Columns and labels:
[1] = target: T1, recombinant human αvβ1 integrin extracellular domains (human, UniProt P06756 1-992; P05556 1-728, Secreted glycoprotein heterodimer. It is biotinylated on the omitted Avitag, and an interchain disulfide sits in the omitted coiled-coils.); test: AlphaLISA blocking of human fibronectin binding
T1 construct: Soluble heterodimer co-expressed in Expi293 cells; also called hαvβ1; not shown: Alpha chain: acidic coiled-coil with cysteine and GG-Avitag; Beta chain: basic coiled-coil with cysteine and GG-Avitag

[2] = target: T2, recombinant human α5β1 integrin extracellular domains (human, UniProt P08648 1-995; P05556 1-728, Biotinylated on the Avitag (tag not in the letters); interchain disulfide between the coiled-coils (not in the letters).); test: AlphaLISA blocking of human fibronectin binding
T2 construct: Soluble heterodimer co-expressed in Expi293 cells; also called hα5β1

[3] = target: T3, recombinant mouse αvβ1 integrin extracellular domains (mouse, UniProt P43406 1-988; P09055 1-728, Biotinylated on the Avitag (tag not in the letters); interchain disulfide between the coiled-coils (not in the letters).); test: ForteBio Octet Red (BLI); upper end tied to Ab-31 and mαvβ1 by Table 13
T3 construct: Soluble heterodimer co-expressed in Expi293 cells; also called mαvβ1

[4] = target: mouse αvβ3 integrin on CHOK1 stable cells (mouse, UniProt P43406 31-1044; O54890 26-787); test: cell-based or functional assay
[5] = target: human αvβ6 integrin on CHOK1 stable cells (human, UniProt P06756 31-1048; P18564 22-788); test: cell-based or functional assay
[6] = target: mouse αvβ8 integrin on CHOK1 stable cells (mouse, UniProt P43406 31-1044; Q0VBD0 22-767); test: cell-based or functional assay
[7] = target: mouse αvβ6 integrin on CHOK1 stable cells (mouse, UniProt P43406 31-1044; Q9Z0T9 22-787); test: cell-based or functional assay
[8] = target: mouse αvβ1 integrin on CHOK1 stable cells (mouse, UniProt P43406 31-1044; P09055 21-798); test: cell-based or functional assay
[9] = target: human αvβ8 integrin on CHOK1 stable cells (human, UniProt P06756 31-1048; P26012 43-769); test: cell-based or functional assay
[10] = target: human αvβ1 integrin on CHOK1 stable cells (human, UniProt P06756 31-1048; P05556 21-798); test: cell-based or functional assay
[11] = target: mouse αvβ5 integrin on CHOK1 stable cells (mouse, UniProt P43406 31-1044; O70309 24-798); test: cell-based or functional assay
[12] = target: T4, recombinant human αvβ5 integrin extracellular domains (human, UniProt P06756 1-992; P18084 1-719, Secreted glycoprotein heterodimer. It is biotinylated on the omitted Avitag, and an interchain disulfide sits in the omitted coiled-coils.); test: AlphaLISA blocking of human vitronectin-GST binding
T4 construct: Soluble heterodimer co-expressed in Expi293 cells; also called hαvβ5; not shown: Alpha chain: acidic coiled-coil with cysteine and GG-Avitag; Beta chain: basic coiled-coil with cysteine and GG-Avitag

[13] = target: T5, recombinant human αvβ3 integrin extracellular domains (human, UniProt P06756 1-992; P05106 1-718, Secreted glycoprotein heterodimer. It is biotinylated on the omitted Avitag, and an interchain disulfide sits in the omitted coiled-coils.); test: as above
T5 construct: Soluble heterodimer co-expressed in Expi293 cells; also called hαvβ3; not shown: Alpha chain: acidic coiled-coil with cysteine and GG-Avitag; Beta chain: basic coiled-coil with cysteine and GG-Avitag

[14] = target: T5, recombinant human αvβ3 integrin …; test: ForteBio Octet Red (BLI)
[15] = target: T6, recombinant mouse αvβ3 integrin extracellular domains (mouse, UniProt P43406 1-988; O54890 1-717, Biotinylated on the Avitag (tag not in the letters); interchain disulfide between the coiled-coils (not in the letters).); test: AlphaLISA blocking of mouse vitronectin binding
T6 construct: Soluble heterodimer co-expressed in Expi293 cells; also called mαvβ3
Description: (§1) Briefly, the testing antibody (8 μL) was added as a 4×(of Final testing concentration) solution in the HEPES buffer described previously into a 384w AlphaPlate™ (Perkin Elmer #6005350). Then the integrin and ligand were added sequentially as 8×(4 μL each). Plates were sealed and incubated at room temperature for two hours. Then 4×acceptor bead solution ([…]) was added, and the plates were resealed and incubated at room temperature (RT) for one hour. Finally, 4×([…]) donor beads solution was added in a darkened room and incubated for 45 minutes at room temperature. Plates were read on the Envision (Perkin Elmer) in AlphaScreen™ mode within three hours of donor bead addition.

[16] = target: T7, recombinant mouse αvβ6 integrin extracellular domains (mouse, UniProt P43406 1-988; Q9Z0T9 1-706, Biotinylated on the Avitag (tag not in the letters); interchain disulfide between the coiled-coils (not in the letters).); test: ForteBio Octet Red (BLI); lower end tied to Ab-33 and mαvβ6 by Table 13
T7 construct: Soluble heterodimer co-expressed in Expi293 cells; also called mαvβ6

[17] = target: T8, recombinant mouse αvβ5 integrin extracellular domains (mouse, UniProt P43406 1-988; O70309 1-719, Biotinylated on the Avitag (tag not in the letters); interchain disulfide between the coiled-coils (not in the letters).); test: AlphaLISA blocking of mouse vitronectin binding
T8 construct: Soluble heterodimer co-expressed in Expi293 cells; also called mαvβ5
Description: as §1

T6 sequence (P43406 31-988 limits assumed, form in doubt, chain 1 of 2): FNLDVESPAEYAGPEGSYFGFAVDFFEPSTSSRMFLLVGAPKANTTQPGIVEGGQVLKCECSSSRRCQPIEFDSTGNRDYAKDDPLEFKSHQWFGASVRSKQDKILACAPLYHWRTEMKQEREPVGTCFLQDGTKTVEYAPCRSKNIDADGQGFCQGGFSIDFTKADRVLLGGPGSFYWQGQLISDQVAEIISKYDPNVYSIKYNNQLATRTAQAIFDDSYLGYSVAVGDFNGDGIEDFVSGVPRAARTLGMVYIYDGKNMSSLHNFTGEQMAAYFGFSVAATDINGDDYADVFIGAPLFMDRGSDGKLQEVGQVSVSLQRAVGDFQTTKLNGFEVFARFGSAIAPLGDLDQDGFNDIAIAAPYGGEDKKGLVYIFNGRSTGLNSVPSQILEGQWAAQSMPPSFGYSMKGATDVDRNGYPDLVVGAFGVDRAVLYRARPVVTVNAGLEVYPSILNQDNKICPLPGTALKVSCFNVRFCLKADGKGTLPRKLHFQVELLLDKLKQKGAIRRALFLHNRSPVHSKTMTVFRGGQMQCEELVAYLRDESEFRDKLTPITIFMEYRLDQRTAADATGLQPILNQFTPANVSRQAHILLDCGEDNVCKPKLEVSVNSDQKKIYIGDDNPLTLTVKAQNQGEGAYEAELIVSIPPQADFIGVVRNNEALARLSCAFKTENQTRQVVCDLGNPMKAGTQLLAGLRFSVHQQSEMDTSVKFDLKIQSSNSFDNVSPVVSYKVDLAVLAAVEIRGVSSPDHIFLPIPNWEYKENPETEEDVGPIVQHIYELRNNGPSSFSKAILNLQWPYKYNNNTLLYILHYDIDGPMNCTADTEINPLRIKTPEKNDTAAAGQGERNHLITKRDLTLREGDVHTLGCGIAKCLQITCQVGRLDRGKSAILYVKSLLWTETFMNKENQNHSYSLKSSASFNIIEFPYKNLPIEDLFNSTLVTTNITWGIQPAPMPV
T6 sequence (O54890 26-717 limits assumed, form in doubt, chain 2 of 2): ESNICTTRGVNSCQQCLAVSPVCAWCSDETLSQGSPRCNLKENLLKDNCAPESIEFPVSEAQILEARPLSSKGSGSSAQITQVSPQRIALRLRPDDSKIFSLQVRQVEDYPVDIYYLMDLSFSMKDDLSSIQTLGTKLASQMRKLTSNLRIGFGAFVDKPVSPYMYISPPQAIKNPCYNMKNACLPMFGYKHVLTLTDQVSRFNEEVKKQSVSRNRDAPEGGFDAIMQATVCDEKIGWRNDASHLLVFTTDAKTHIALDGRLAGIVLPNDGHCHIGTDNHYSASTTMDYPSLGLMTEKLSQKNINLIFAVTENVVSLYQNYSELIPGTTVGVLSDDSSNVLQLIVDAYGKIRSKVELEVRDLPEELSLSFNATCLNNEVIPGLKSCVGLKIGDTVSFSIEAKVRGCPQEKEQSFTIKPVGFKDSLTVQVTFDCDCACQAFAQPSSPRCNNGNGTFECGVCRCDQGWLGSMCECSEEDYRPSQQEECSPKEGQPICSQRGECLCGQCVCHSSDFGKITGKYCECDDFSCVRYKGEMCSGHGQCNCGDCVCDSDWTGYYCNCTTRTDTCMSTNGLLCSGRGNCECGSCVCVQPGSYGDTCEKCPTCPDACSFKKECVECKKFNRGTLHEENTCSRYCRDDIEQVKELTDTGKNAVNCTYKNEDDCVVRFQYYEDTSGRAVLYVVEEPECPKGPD
mouse αvβ1 integrin on CHOK1 stable cells, sequence (P43406 31-1044, chain 1 of 2): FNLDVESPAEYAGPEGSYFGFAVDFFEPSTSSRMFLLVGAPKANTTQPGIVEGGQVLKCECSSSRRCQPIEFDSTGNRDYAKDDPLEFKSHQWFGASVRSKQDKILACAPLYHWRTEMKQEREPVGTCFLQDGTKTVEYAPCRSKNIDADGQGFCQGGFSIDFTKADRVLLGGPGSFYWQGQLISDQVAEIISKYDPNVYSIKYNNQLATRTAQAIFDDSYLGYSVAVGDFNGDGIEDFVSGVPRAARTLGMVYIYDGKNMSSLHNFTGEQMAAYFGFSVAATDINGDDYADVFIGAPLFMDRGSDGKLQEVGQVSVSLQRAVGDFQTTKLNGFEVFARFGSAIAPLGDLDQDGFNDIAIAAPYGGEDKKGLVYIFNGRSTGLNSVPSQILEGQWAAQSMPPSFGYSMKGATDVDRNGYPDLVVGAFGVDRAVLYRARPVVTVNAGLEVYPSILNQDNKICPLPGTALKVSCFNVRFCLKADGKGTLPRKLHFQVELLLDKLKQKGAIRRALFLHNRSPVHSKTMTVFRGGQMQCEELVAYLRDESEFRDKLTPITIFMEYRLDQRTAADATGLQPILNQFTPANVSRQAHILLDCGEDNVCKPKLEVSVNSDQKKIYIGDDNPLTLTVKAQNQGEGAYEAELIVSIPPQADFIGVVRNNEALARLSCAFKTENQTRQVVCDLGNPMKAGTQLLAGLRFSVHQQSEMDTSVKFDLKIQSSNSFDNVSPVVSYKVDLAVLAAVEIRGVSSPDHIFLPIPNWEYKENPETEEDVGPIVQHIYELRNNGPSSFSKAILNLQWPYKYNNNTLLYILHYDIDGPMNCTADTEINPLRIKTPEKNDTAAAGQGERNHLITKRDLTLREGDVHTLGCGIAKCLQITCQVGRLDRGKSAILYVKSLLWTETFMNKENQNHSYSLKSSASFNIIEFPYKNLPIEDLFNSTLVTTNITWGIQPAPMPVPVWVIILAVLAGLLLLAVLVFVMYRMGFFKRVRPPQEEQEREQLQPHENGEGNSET
mouse αvβ1 integrin on CHOK1 stable cells, sequence (P09055 21-798, chain 2 of 2): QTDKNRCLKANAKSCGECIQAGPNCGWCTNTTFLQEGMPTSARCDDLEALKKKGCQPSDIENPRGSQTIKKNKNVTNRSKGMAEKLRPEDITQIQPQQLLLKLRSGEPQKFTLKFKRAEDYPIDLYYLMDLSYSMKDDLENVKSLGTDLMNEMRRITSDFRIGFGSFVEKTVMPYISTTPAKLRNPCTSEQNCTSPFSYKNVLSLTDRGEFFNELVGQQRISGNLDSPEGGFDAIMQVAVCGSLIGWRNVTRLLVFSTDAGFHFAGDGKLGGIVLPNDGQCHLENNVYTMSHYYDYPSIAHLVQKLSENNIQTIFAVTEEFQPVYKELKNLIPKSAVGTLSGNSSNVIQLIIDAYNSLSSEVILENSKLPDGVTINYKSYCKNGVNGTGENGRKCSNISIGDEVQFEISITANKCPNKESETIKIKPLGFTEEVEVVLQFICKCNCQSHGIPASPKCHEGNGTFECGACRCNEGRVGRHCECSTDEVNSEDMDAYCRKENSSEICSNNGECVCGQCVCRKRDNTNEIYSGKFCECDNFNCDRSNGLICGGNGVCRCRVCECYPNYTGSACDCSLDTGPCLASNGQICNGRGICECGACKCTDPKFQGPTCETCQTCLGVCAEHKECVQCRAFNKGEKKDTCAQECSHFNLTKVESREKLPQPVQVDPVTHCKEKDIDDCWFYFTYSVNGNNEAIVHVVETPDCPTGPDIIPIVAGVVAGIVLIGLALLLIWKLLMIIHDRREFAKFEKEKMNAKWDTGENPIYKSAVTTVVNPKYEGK
T8 sequence (P43406 31-988 limits assumed, form in doubt, chain 1 of 2): as the sequence (P43406 31-988 limits assumed, form in doubt, chain 1 of 2) above
T8 sequence (O70309 24-719 limits assumed, form in doubt, chain 2 of 2): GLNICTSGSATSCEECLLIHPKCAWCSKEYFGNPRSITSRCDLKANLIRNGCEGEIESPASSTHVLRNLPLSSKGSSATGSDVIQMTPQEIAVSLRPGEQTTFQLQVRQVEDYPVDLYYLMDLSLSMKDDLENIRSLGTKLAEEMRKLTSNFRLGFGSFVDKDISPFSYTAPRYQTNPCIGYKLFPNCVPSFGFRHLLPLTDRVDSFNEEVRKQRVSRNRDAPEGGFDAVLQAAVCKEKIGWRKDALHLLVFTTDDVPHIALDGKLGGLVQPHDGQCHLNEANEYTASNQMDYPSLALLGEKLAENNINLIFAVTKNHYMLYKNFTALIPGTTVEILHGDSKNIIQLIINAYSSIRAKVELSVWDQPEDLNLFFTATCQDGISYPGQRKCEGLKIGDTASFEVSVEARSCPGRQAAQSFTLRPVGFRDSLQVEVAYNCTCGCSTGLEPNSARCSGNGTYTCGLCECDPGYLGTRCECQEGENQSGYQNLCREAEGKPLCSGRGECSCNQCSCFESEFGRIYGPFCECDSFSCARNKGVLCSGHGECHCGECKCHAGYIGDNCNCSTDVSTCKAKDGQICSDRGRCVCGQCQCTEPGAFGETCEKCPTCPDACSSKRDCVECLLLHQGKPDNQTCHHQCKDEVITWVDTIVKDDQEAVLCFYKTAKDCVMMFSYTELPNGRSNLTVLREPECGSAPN
mouse αvβ8 integrin on CHOK1 stable cells, sequence (P43406 31-1044, chain 1 of 2): as the sequence (P43406 31-1044, chain 1 of 2) above
mouse αvβ8 integrin on CHOK1 stable cells, sequence (Q0VBD0 22-767, chain 2 of 2): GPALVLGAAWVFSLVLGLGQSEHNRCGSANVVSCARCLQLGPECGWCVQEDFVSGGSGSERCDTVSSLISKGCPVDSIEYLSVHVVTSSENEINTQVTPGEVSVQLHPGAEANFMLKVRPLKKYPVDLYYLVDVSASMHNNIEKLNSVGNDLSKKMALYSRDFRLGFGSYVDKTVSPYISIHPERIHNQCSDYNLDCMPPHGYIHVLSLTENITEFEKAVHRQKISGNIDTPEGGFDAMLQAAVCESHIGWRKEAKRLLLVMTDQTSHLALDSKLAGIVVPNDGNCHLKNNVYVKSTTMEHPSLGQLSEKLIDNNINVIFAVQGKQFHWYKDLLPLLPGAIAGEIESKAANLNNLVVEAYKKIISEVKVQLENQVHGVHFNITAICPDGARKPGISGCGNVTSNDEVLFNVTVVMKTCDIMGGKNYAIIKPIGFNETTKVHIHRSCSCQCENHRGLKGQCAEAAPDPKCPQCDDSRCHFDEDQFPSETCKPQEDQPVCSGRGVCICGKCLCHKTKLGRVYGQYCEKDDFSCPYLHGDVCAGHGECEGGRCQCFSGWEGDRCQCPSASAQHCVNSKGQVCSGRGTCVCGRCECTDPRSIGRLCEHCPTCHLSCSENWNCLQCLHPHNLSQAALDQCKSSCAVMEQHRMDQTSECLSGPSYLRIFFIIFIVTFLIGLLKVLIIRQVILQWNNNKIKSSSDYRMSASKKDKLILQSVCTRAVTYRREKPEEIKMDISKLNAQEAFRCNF

Row | IC50 [1] [nM] | IC50 [2] [nM] | Kd [3] [nM] | IC50 of inhibition of adhesion of CHOK1-mαvβ3 cells to vitronectin matrix [4] [nM] | IC50 of latent TGFβ activation (PAI-1 luciferase, TMLC and CHOK1-integrin co-culture) [5] [nM] | IC50 of latent TGFβ activation (PAI-1 luciferase, TMLC and CHOK1-integrin co-culture) [6] [nM] | IC50 of latent TGFβ activation (PAI-1 luciferase, TMLC and CHOK1-integrin co-culture) [7] [nM] | IC50 of inhibition of adhesion of CHOK1-α5KO-mαvβ1 cells to fibronectin matrix [8] [nM] | IC50 of latent TGFβ activation (PAI-1 luciferase, TMLC and CHOK1-integrin co-culture) [8] [nM] | IC50 of latent TGFβ activation (PAI-1 luciferase, TMLC and CHOK1-integrin co-culture) [9] [nM] | IC50 of latent TGFβ activation (PAI-1 luciferase, TMLC and CHOK1-integrin co-culture) [10] [nM] | IC50 of inhibition of adhesion of CHOK1-mαvβ5 cells to vitronectin matrix [11] [nM] | IC50 [12] [nM] | IC50 [13] [nM] | Kd [14] [nM] | IC50 [15] [nM] | Kd [16] [nM] | IC50 [17] [nM] | Binder
1 | 3.15 | 43.1 |  |  |  |  |  |  |  |  |  |  | 53.5 | 1.24 | 5.29 | 4.2 |  |  | Ab-30 (antibody, V domains shown) VH: EVQLQESGPGLVKPSETLSLTCAVSGYSISSGYYWGWIRQPPGKGLEWIGSIYHSGNTYYNPSLKSRVTISVDTSKNQFSLKLSSVTAADTAVYYCARVPRYSRGDAYYYYGMDVWGQGTTVTVSS VL: DIQMTQSPSTLSASVGDRVTITCRASQSISSWLAWYQQKPGKAPKLLIYKASSLESGVPSRFSGSGSGTEFTLTISSLQPDDFATYYCQQVKIYPPYTFGGGTKVEIK
2 | 2.41 | 34.1 |  |  |  |  |  |  |  |  |  |  | 26 | 1.03 | 6.14 | 4.3 |  |  | Ab-32 (antibody, V domains shown) VH: EVQLQESGPGLVKPSETLSLTCAVSGYSISSGYYWGWIRQPPGKGLEWIGSIYHSGNTYYNPSLKSRVTISVDTSKNQFSLKLSSVTAADTAVYYCARVPRYSRGDAYYYYGMDVWGQGTTVTVSS VL: EIVLTQSPGTLSLSPGERATLSCRASQSVRSSYLAWYQQKPGQAPRLLIYGASSRATGIPDRFSGSGSGTDFTLTISRLEPEDFAVYYCQQAGLVFTFGGGTKVEIK

The remaining lines, values behind:

Row | Binder | IC50 [1] [nM] | IC50 [2] [nM] | Kd [3] [nM] | IC50 of inhibition of adhesion of CHOK1-mαvβ3 cells to vitronectin matrix [4] [nM] | IC50 of latent TGFβ activation (PAI-1 luciferase, TMLC and CHOK1-integrin co-culture) [5] [nM] | IC50 of latent TGFβ activation (PAI-1 luciferase, TMLC and CHOK1-integrin co-culture) [6] [nM] | IC50 of latent TGFβ activation (PAI-1 luciferase, TMLC and CHOK1-integrin co-culture) [7] [nM] | IC50 of inhibition of adhesion of CHOK1-α5KO-mαvβ1 cells to fibronectin matrix [8] [nM] | IC50 of latent TGFβ activation (PAI-1 luciferase, TMLC and CHOK1-integrin co-culture) [8] [nM] | IC50 of latent TGFβ activation (PAI-1 luciferase, TMLC and CHOK1-integrin co-culture) [9] [nM] | IC50 of latent TGFβ activation (PAI-1 luciferase, TMLC and CHOK1-integrin co-culture) [10] [nM] | IC50 of inhibition of adhesion of CHOK1-mαvβ5 cells to vitronectin matrix [11] [nM] | IC50 [12] [nM] | IC50 [13] [nM] | Kd [14] [nM] | IC50 [15] [nM] | Kd [16] [nM] | IC50 [17] [nM]
3 | Ab-31 (antibody, V domains shown) VH: EVQLQESGPGLVKPSETLSLTCAVSGYSISSGYYWGWIRQPPGKGLEWIGSIYHSGNTYYNPSLKSRVTISVDTSKNQFSLKLSSVTAADTAVYYCARVPRYSRGDAYYYYGMDVWGQGTTVTVSS VL: DIQMTQSPSTLSASVGDRVTITCRASQSIGSWLAWYQQKPGKAPKLLIYKASSLESGVPSRFSGSGSGTEFTLTISSLQPDDFATYYCQQSGPYPWTFGGGTKVEIK | 2.26 | 47.3 | 2 to 48 | 1 | 19.1 | 13.5 | 3.1 | 1.5 | 7.5 | 3.9 | 6.1 | 5.6 | 31.7 | 0.94 | 6.47 | 3.2 |  | 
4 | Ab-33 (antibody, V domains shown) VH: EVQLVQSGAEVKKPGSSVKVSCKASGGTFSNYAISWVRQAPGQGLEWMGGIIPIFGTANYAQKFQGRVTITADESTSTAYMELSSLRSEDTAVYYCARAPRSARGDMYYYYYGMDVWGQGTTVTVSS VL: DIQMTQSPSTLSASVGDRVTITCRASQSIGSWLAWYQQKPGKAPKLLIYKASSLESGVPSRFSGSGSGTEFTLTISSLQPDDFATYYCQQYGRYPWTFGGGTKVEIK | 1.27 | 31.1 |  |  |  |  |  |  |  |  |  |  | 22.3 | 1.28 | 5.07 | 9.2 | 2 to 48 | 96.3
5 | Ab-29 (antibody, V domains shown) VH: ELQLQESGPGLVKPSETLSLTCTVSGGSISSNSYYWGWIRQPPGKGLEWIGSIYYSGSTYYNPSLKSRVTISVDTSKNQFSLKLSSVTAADTAVYYCARVRRVAGRGDSYYYYYGMDVWGQGTTVTVSS VL: DIQMTQSPSSVSASVGDRVTITCRASQGISRWLAWYQQKPGKAPKLLIYAASSLQSGVPSRFSGSGSGTDFTLTISSLQPEDFATYYCQQAISHPWTFGGGTKVEIK | 2.57 | 9.46 |  |  |  |  |  |  |  |  |  |  | 14.8 | 1.16 | 6.58 | 3.4 |  | 17.7
